Patent US20040241845A1 (UNIVERSIT DE MONTR AL, published 2004)

Key:
[1] = biological target: T1, Staufen/YFP fusion protein (human, UniProt O95793 82-577); test: BRET in live 293T cells
T1 construct: BRET acceptor, expressed in live 293T cells; also called pCMV-Staufen/YFP; not shown: YFP of pCMV-GFP-Topaz (red-shifted GFP variant of Aequorea victoria GFP); its substitutions and the junction are not pri
T1 sequence: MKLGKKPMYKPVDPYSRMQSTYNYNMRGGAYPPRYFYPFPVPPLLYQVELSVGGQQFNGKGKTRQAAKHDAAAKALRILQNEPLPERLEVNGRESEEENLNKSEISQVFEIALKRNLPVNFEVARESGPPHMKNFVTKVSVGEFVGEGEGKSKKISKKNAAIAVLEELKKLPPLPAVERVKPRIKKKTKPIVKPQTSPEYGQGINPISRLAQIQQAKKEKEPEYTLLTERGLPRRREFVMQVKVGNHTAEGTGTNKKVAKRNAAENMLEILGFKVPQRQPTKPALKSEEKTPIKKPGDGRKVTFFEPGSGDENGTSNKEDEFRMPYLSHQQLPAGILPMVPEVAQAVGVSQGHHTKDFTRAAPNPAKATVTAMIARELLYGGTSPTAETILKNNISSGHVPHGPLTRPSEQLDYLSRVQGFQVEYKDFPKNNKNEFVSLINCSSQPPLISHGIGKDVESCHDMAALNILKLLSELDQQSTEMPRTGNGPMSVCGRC

[2] = biological target: HIV-1 CA (processed form of pr55Gag, CAp24/p25) (HIV-1 (pNL4-3), UniProt P12493 133-363); test: co-immunoprecipitation with anti-HA
[3] = biological target: T2, HIV-1 pr55Gag (Gag precursor expressed from pNL4-3 proviruses) (HIV-1 (pNL4-3), UniProt P12493 2-500); test: co-immunoprecipitation with anti-CA, Western with anti-HA
T2 construct: In lysates of transfected 293T cells; The anti-CA antibody also pulls down pr41Gag and CAp24/p25

B1: p6/Rluc (other)
chain: LQSRPEPTAPPEESFRSGVETTTPPQKQEPIDKELYPLTSLRSLFGNDPSSQ
notes: domain: p6; not shown: Renilla reniformis luciferase (Rluc) of pRluc-N1(h)
[1]
  binding result: no binding

B2: Staufen-HA (wild-type human Staufen, short isoform, HA-tagged) (other)
chain: MKLGKKPMYKPVDPYSRMQSTYNYNMRGGAYPPRYFYPFPVPPLLYQVELSVGGQQFNGKGKTRQAAKHDAAAKALRILQNEPLPERLEVNGRESEEENLNKSEISQVFEIALKRNLPVNFEVARESGPPHMKNFVTKVSVGEFVGEGEGKSKKISKKNAAIAVLEELKKLPPLPAVERVKPRIKKKTKPIVKPQTSPEYGQGINPISRLAQIQQAKKEKEPEYTLLTERGLPRRREFVMQVKVGNHTAEGTGTNKKVAKRNAAENMLEILGFKVPQRQPTKPALKSEEKTPIKKPGDGRKVTFFEPGSGDENGTSNKEDEFRMPYLSHQQLPAGILPMVPEVAQAVGVSQGHHTKDFTRAAPNPAKATVTAMIARELLYGGTSPTAETILKNNISSGHVPHGPLTRPSEQLDYLSRVQGFQVEYKDFPKNNKNEFVSLINCSSQPPLISHGIGKDVESCHDMAALNILKLLSELDQQSTEMPRTGNGPMSVCGRC
notes: Expressed in 293T cells from the pNL4-3/Staufen-HA chimeric provirus (in the nef reading frame) or from a Staufen-HA expressor (pcDNA3-RSV-hStau-HA); Runs as a 60 kDa band; also called hStau/HA; HA-hStau
[2]
  binding result: no binding

B3: Staufen F135A-HA (full-length Staufen with a point mutation in dsRBD3) (other)
chain: MKLGKKPMYKPVDPYSRMQSTYNYNMRGGAYPPRYFYPFPVPPLLYQVELSVGGQQFNGKGKTRQAAKHDAAAKALRILQNEPLPERLEVNGRESEEENLNKSEISQVFEIALKRNLPVNFEVARESGPPHMKNAVTKVSVGEFVGEGEGKSKKISKKNAAIAVLEELKKLPPLPAVERVKPRIKKKTKPIVKPQTSPEYGQGINPISRLAQIQQAKKEKEPEYTLLTERGLPRRREFVMQVKVGNHTAEGTGTNKKVAKRNAAENMLEILGFKVPQRQPTKPALKSEEKTPIKKPGDGRKVTFFEPGSGDENGTSNKEDEFRMPYLSHQQLPAGILPMVPEVAQAVGVSQGHHTKDFTRAAPNPAKATVTAMIARELLYGGTSPTAETILKNNISSGHVPHGPLTRPSEQLDYLSRVQGFQVEYKDFPKNNKNEFVSLINCSSQPPLISHGIGKDVESCHDMAALNILKLLSELDQQSTEMPRTGNGPMSVCGRC
notes: Expressed from the pNL4-3/StaufenF135A-HA chimeric provirus
[3]
  binding result: no binding

B4: p2-p1/Rluc (other)
chain: AEAMSQVTNSATIMMQRGNFRNQRKIVKCFNCGKEGHTARNCRAPRKKGCWKCGKEGHQMKDCTERQANFLGKIWPSYKGRPGNF
notes: domain: p2-p1; not shown: Renilla reniformis luciferase (Rluc) of pRluc-N1(h)
[1]
  binding result: binds

B5: MA/Rluc (other)
chain: MGARASVLSGGELDRWEKIRLRPGGKKKYKLKHIVWASRELERFAVNPGLLETSEGCRQILGQLQPSLQTGSEELRSLYNTVATLYCVHQRIEIKDTKEALDKIEEEQNKSKKKAQQAAADTGHSNQVSQNY
notes: domain: MA; not shown: Renilla reniformis luciferase (Rluc) of pRluc-N1(h)
[1]
  binding result: no binding

B6: NC/Rluc (other)
chain: MQRGNFRNQRKIVKCFNCGKEGHTARNCRAPRKKGCWKCGKEGHQMKDCTERQAN
notes: domain: NC; not shown: Renilla reniformis luciferase (Rluc) of pRluc-N1(h)
[1]
  binding result: binds
